Source: patent publication US20260209386A1 (MYTHIC THERAPEUTICS, published 2026)

T1: Human PTK7 Protein, His Tag, Acro Biosystems (human, UniProt Q13308 31-704)
T1 construct: Bought protein; also called CCK4; not shown: His tag
T1 sequence: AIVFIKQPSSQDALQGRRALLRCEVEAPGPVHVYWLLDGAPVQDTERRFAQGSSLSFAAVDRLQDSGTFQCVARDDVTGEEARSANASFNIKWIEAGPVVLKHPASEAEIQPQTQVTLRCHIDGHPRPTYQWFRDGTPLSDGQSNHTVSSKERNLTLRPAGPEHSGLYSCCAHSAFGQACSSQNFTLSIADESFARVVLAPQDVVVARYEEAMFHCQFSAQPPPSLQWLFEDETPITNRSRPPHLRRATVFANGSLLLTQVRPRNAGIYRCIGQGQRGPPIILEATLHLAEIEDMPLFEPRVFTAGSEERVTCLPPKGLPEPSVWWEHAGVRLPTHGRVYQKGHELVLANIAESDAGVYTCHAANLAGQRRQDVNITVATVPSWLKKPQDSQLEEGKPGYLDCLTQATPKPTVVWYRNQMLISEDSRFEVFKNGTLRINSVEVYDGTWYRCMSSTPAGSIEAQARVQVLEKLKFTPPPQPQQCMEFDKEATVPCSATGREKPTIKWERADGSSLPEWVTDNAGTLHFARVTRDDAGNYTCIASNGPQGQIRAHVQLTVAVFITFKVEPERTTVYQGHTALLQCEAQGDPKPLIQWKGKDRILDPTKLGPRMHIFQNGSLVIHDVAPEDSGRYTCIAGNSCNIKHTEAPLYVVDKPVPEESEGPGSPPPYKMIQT

B1: MYT11182 (antibody, V domains shown)
VH: EVQLVESGGGLVQPGGSLRLSCTASGIHLSSYVMGWVRQAPGKGLEWVGYIYGGGGTYYATWARGRFTISRDTSKNTVYLQMNSLRAEDTAVYFCARAAADFYFNLWGQGTLVTVSS
VL: EIVMTQSPSTLSASVGDRVIITCQASQSISSYLAWYQQKPGKAPKLLIYDISDLASGVPSRFSGSGSGAEFTLTISSLQPDDFATYYCQSYYWISNSGAAFGQGTKLTVL
notes: HC variant of MYT9460, sub at HCV pos 28 (H1 03)
B2: MYT11184 (antibody, V domains shown)
VH: EVQLVESGGGLVQPGGSLRLSCTASGIDLHSYVMGWVRQAPGKGLEWVGYIYGGGGTYYATWARGRFTISRDTSKNTVYLQMNSLRAEDTAVYFCARAAADFYFNLWGQGTLVTVSS
VL: EIVMTQSPSTLSASVGDRVIITCQASQSISSYLAWYQQKPGKAPKLLIYDISDLASGVPSRFSGSGSGAEFTLTISSLQPDDFATYYCQSYYWISNSGAAFGQGTKLTVL
notes: HC variant of MYT9460, sub at HCV pos 30 (H1 05)
B3: MYT11224 (antibody, V domains shown)
VH: EVQLVESGGGLVQPGGSLRLSCTASGIDLSSYVMGWVRQAPGKGLEWVGYIYGGGGTYYATWARGRFTISRDTSKNTVYLQMNSLRAEDTAVYFCARAAADFYFNLWGQGTLVTVSS
VL: EIVMTQSPSTLSASVGDRVIITCQASQHISSYLAWYQQKPGKAPKLLIYDISDLASGVPSRFSGSGSGAEFTLTISSLQPDDFATYYCQSYYWISNSGAAFGQGTKLTVL
notes: LC variant of MYT9460, sub at LCV pos 28 (L1 05)
B4: MYT11236 (antibody, V domains shown)
VH: EVQLVESGGGLVQPGGSLRLSCTASGIDLSSYVMGWVRQAPGKGLEWVGYIYGGGGTYYATWARGRFTISRDTSKNTVYLQMNSLRAEDTAVYFCARAAADFYFNLWGQGTLVTVSS
VL: EIVMTQSPSTLSASVGDRVIITCQASQSISSYLAWYQQKPGKAPKLLIYDISDLHSGVPSRFSGSGSGAEFTLTISSLQPDDFATYYCQSYYWISNSGAAFGQGTKLTVL
notes: LC variant of MYT9460, sub at LCV pos 55 (L2 06)
B5: MYT11194 (antibody, V domains shown)
VH: EVQLVESGGGLVQPGGSLRLSCTASGIDLSSYVMGWVRQAPGKGLEWVGYIYGHGGTYYATWARGRFTISRDTSKNTVYLQMNSLRAEDTAVYFCARAAADFYFNLWGQGTLVTVSS
VL: EIVMTQSPSTLSASVGDRVIITCQASQSISSYLAWYQQKPGKAPKLLIYDISDLASGVPSRFSGSGSGAEFTLTISSLQPDDFATYYCQSYYWISNSGAAFGQGTKLTVL
notes: HC variant of MYT9460, sub at HCV pos 54 (H2 05)
B6: MYT11210 (antibody, V domains shown)
VH: EVQLVESGGGLVQPGGSLRLSCTASGIDLSSYVMGWVRQAPGKGLEWVGYIYGGGGTYYATWARGRFTISRDTSKNTVYLQMNSLRAEDTAVYFCARAAHDFYFNLWGQGTLVTVSS
VL: EIVMTQSPSTLSASVGDRVIITCQASQSISSYLAWYQQKPGKAPKLLIYDISDLASGVPSRFSGSGSGAEFTLTISSLQPDDFATYYCQSYYWISNSGAAFGQGTKLTVL
notes: HC variant of MYT9460, sub at HCV pos 100 (H3 05)
B7: MYT11238 (antibody, V domains shown)
VH: EVQLVESGGGLVQPGGSLRLSCTASGIDLSSYVMGWVRQAPGKGLEWVGYIYGGGGTYYATWARGRFTISRDTSKNTVYLQMNSLRAEDTAVYFCARAAADFYFNLWGQGTLVTVSS
VL: EIVMTQSPSTLSASVGDRVIITCQASQSISSYLAWYQQKPGKAPKLLIYDISDLASGVPSRFSGSGSGAEFTLTISSLQPDDFATYYCHSYYWISNSGAAFGQGTKLTVL
notes: LC variant of MYT9460, sub at LCV pos 89 (L3 01)
B8: MYT11225 (antibody, V domains shown)
VH: EVQLVESGGGLVQPGGSLRLSCTASGIDLSSYVMGWVRQAPGKGLEWVGYIYGGGGTYYATWARGRFTISRDTSKNTVYLQMNSLRAEDTAVYFCARAAADFYFNLWGQGTLVTVSS
VL: EIVMTQSPSTLSASVGDRVIITCQASQSHSSYLAWYQQKPGKAPKLLIYDISDLASGVPSRFSGSGSGAEFTLTISSLQPDDFATYYCQSYYWISNSGAAFGQGTKLTVL
notes: LC variant of MYT9460, sub at LCV pos 29 (L1 06)
B9: MYT11193 (antibody, V domains shown)
VH: EVQLVESGGGLVQPGGSLRLSCTASGIDLSSYVMGWVRQAPGKGLEWVGYIYHGGGTYYATWARGRFTISRDTSKNTVYLQMNSLRAEDTAVYFCARAAADFYFNLWGQGTLVTVSS
VL: EIVMTQSPSTLSASVGDRVIITCQASQSISSYLAWYQQKPGKAPKLLIYDISDLASGVPSRFSGSGSGAEFTLTISSLQPDDFATYYCQSYYWISNSGAAFGQGTKLTVL
notes: HC variant of MYT9460, sub at HCV pos 53 (H2 04)
B10: MYT11196 (antibody, V domains shown)
VH: EVQLVESGGGLVQPGGSLRLSCTASGIDLSSYVMGWVRQAPGKGLEWVGYIYGGGHTYYATWARGRFTISRDTSKNTVYLQMNSLRAEDTAVYFCARAAADFYFNLWGQGTLVTVSS
VL: EIVMTQSPSTLSASVGDRVIITCQASQSISSYLAWYQQKPGKAPKLLIYDISDLASGVPSRFSGSGSGAEFTLTISSLQPDDFATYYCQSYYWISNSGAAFGQGTKLTVL
notes: HC variant of MYT9460, sub at HCV pos 56 (H2 07)
B11: MYT11192 (antibody, V domains shown)
VH: EVQLVESGGGLVQPGGSLRLSCTASGIDLSSYVMGWVRQAPGKGLEWVGYIHGGGGTYYATWARGRFTISRDTSKNTVYLQMNSLRAEDTAVYFCARAAADFYFNLWGQGTLVTVSS
VL: EIVMTQSPSTLSASVGDRVIITCQASQSISSYLAWYQQKPGKAPKLLIYDISDLASGVPSRFSGSGSGAEFTLTISSLQPDDFATYYCQSYYWISNSGAAFGQGTKLTVL
notes: HC variant of MYT9460, sub at HCV pos 52 (H2 03)
B12: MYT11180 (antibody, V domains shown)
VH: EVQLVESGGGLVQPGGSLRLSCTASHIDLSSYVMGWVRQAPGKGLEWVGYIYGGGGTYYATWARGRFTISRDTSKNTVYLQMNSLRAEDTAVYFCARAAADFYFNLWGQGTLVTVSS
VL: EIVMTQSPSTLSASVGDRVIITCQASQSISSYLAWYQQKPGKAPKLLIYDISDLASGVPSRFSGSGSGAEFTLTISSLQPDDFATYYCQSYYWISNSGAAFGQGTKLTVL
notes: HC variant of MYT9460, sub at HCV pos 26 (H1 01)
B13: MYT11221 (antibody, V domains shown)
VH: EVQLVESGGGLVQPGGSLRLSCTASGIDLSSYVMGWVRQAPGKGLEWVGYIYGGGGTYYATWARGRFTISRDTSKNTVYLQMNSLRAEDTAVYFCARAAADFYFNLWGQGTLVTVSS
VL: EIVMTQSPSTLSASVGDRVIITCQHSQSISSYLAWYQQKPGKAPKLLIYDISDLASGVPSRFSGSGSGAEFTLTISSLQPDDFATYYCQSYYWISNSGAAFGQGTKLTVL
notes: LC variant of MYT9460, sub at LCV pos 25 (L1 02)
B14: MYT11222 (antibody, V domains shown)
VH: EVQLVESGGGLVQPGGSLRLSCTASGIDLSSYVMGWVRQAPGKGLEWVGYIYGGGGTYYATWARGRFTISRDTSKNTVYLQMNSLRAEDTAVYFCARAAADFYFNLWGQGTLVTVSS
VL: EIVMTQSPSTLSASVGDRVIITCQAHQSISSYLAWYQQKPGKAPKLLIYDISDLASGVPSRFSGSGSGAEFTLTISSLQPDDFATYYCQSYYWISNSGAAFGQGTKLTVL
notes: LC variant of MYT9460, sub at LCV pos 26 (L1 03)
B15: MYT11229 (antibody, V domains shown)
VH: EVQLVESGGGLVQPGGSLRLSCTASGIDLSSYVMGWVRQAPGKGLEWVGYIYGGGGTYYATWARGRFTISRDTSKNTVYLQMNSLRAEDTAVYFCARAAADFYFNLWGQGTLVTVSS
VL: EIVMTQSPSTLSASVGDRVIITCQASQSISSYHAWYQQKPGKAPKLLIYDISDLASGVPSRFSGSGSGAEFTLTISSLQPDDFATYYCQSYYWISNSGAAFGQGTKLTVL
notes: LC variant of MYT9460, sub at LCV pos 33 (L1 10)
B16: MYT11240 (antibody, V domains shown)
VH: EVQLVESGGGLVQPGGSLRLSCTASGIDLSSYVMGWVRQAPGKGLEWVGYIYGGGGTYYATWARGRFTISRDTSKNTVYLQMNSLRAEDTAVYFCARAAADFYFNLWGQGTLVTVSS
VL: EIVMTQSPSTLSASVGDRVIITCQASQSISSYLAWYQQKPGKAPKLLIYDISDLASGVPSRFSGSGSGAEFTLTISSLQPDDFATYYCQSHYWISNSGAAFGQGTKLTVL
notes: LC variant of MYT9460, sub at LCV pos 91 (L3 03)
B17: MYT11197 (antibody, V domains shown)
VH: EVQLVESGGGLVQPGGSLRLSCTASGIDLSSYVMGWVRQAPGKGLEWVGYIYGGGGHYYATWARGRFTISRDTSKNTVYLQMNSLRAEDTAVYFCARAAADFYFNLWGQGTLVTVSS
VL: EIVMTQSPSTLSASVGDRVIITCQASQSISSYLAWYQQKPGKAPKLLIYDISDLASGVPSRFSGSGSGAEFTLTISSLQPDDFATYYCQSYYWISNSGAAFGQGTKLTVL
notes: HC variant of MYT9460, sub at HCV pos 57 (H2 08)
B18: MYT11213 (antibody, V domains shown)
VH: EVQLVESGGGLVQPGGSLRLSCTASGIDLSSYVMGWVRQAPGKGLEWVGYIYGGGGTYYATWARGRFTISRDTSKNTVYLQMNSLRAEDTAVYFCARAAADFHFNLWGQGTLVTVSS
VL: EIVMTQSPSTLSASVGDRVIITCQASQSISSYLAWYQQKPGKAPKLLIYDISDLASGVPSRFSGSGSGAEFTLTISSLQPDDFATYYCQSYYWISNSGAAFGQGTKLTVL
notes: HC variant of MYT9460, sub at HCV pos 103 (H3 08)
B19: MYT11195 (antibody, V domains shown)
VH: EVQLVESGGGLVQPGGSLRLSCTASGIDLSSYVMGWVRQAPGKGLEWVGYIYGGHGTYYATWARGRFTISRDTSKNTVYLQMNSLRAEDTAVYFCARAAADFYFNLWGQGTLVTVSS
VL: EIVMTQSPSTLSASVGDRVIITCQASQSISSYLAWYQQKPGKAPKLLIYDISDLASGVPSRFSGSGSGAEFTLTISSLQPDDFATYYCQSYYWISNSGAAFGQGTKLTVL
notes: HC variant of MYT9460, sub at HCV pos 55 (H2 06)

Molecular target: T1, Human PTK7 Protein, His Tag, Acro …
Experiment: BLI (Octet), antibody on anti-human Fc sensor, 50 nM PTK7, dissociation at pH 7.4 or 5.4; 1 = pH dependent binding relative to parent

Row | Binder | binding result
1 | B1 | binds
2 | B2 | binds
3 | B3 | binds
4 | B4 | binds
5 | B5 | binds
6 | B6 | binds
7 | B7 | binds
8 | B8 | binds
9 | B9 | binds
10 | B10 | binds
11 | B11 | binds
12 | B12 | binds
13 | B13 | binds
14 | B14 | binds
15 | B15 | binds
16 | B16 | binds
17 | B17 | binds
18 | B18 | binds
19 | B19 | binds
